Laboratory results: patent US20170342155A1 (Amgen, published 2017)
Numbering of substitutions follows the chain as printed.

Legend:
Assay in all cases: flow cytometry on transfected 293T cells, PE secondary antibody, geo mean
[1] = biological target: T1, human CCR7 variant D35E (20100122625) (human, UniProt P32248 25-378)
T1 construct: Human CCR7 with the murine residue at position 35; also called D35 variant
T1 sequence: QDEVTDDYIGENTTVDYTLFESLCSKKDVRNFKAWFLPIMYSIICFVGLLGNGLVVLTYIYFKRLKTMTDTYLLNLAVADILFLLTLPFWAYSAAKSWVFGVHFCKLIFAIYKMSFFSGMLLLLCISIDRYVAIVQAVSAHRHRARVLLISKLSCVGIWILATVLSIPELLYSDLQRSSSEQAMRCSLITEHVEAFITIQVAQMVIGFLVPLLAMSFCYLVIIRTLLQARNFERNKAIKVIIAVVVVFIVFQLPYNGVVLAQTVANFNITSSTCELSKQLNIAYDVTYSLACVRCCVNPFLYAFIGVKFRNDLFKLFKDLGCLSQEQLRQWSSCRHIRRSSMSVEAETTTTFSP

[2] = biological target: T2, human CCR7 variant S49F (20100122627) (human, UniProt P32248 25-378)
T2 sequence: T1 sequence with E11D, S25F

[3] = biological target: T3, human CCR7 variant V123I (20100126473) (human, UniProt P32248 25-378)
T3 sequence: T1 sequence with E11D, V99I

[4] = biological target: T4, human CCR7 variant F128L (20100126472) (human, UniProt P32248 25-378)
T4 sequence: T1 sequence with E11D, F104L

[5] = biological target: T5, human CCR7 variant A207T (20100171270) (human, UniProt P32248 25-378)
T5 sequence: T1 sequence with E11D, A183T

[6] = biological target: T6, human CCR7 variant T297S (20110018203) (human, UniProt P32248 25-378)
T6 sequence: T1 sequence with E11D, T273S

[7] = biological target: T7, murine CCR7 Y44F/V47L/K201R/N202S/G204S/T207A/L208M construct 20110105423 (mouse, UniProt P47774 25-378)
T7 construct: Murine CCR7 with seven human residues; also called YVKNGTL; construct YVKNGTL
T7 chain: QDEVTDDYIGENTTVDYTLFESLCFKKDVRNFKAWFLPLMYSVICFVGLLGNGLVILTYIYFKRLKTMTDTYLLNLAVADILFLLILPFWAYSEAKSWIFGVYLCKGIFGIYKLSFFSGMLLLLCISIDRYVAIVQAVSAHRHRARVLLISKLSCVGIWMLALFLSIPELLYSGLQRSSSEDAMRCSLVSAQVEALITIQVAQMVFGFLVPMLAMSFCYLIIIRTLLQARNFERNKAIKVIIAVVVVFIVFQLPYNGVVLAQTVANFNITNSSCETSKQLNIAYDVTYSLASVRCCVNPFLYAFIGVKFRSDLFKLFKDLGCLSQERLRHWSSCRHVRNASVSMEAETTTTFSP

Measured: binding result

B1: antibody 6B4.1 (antibody, V domains shown)
VH: QVQLVESGGGVVQPGRSLRLSCAASGFTFSSYGMHWVRQAPGKGLEWVAVIWYDGSKKYYADSVKGRFTISRDNSKNTLYLQMNRLRAEDTAVYYCARDGGIAVFLQDNWFDPWGQGTLVTVSS
VL: SYELTQPPSVSVSPGQRARITCSGDKLGDKYASWYQQKPGQSPLLVIYQDSKRPSGIPERFSGSNSGNTATLTISGTQAMDEADYYCQAWGSSTVIFGGGTKLTVLG
notes: Human antibody from XenoMouse hybridoma; Light = 2 and heavy = 42 is inferred from the order of the listing (light chains first)
binds: all assays above

B2: antibody 6B5.1 (antibody, human IgG2, lambda, V domains shown)
VH: B1 VH with S30R, Q107E
VL: B1 VL with R19S, S51G
notes: Human antibody from XenoMouse hybridoma; Light = 18 and heavy = 50 is inferred from the order of the listing
binds: all assays above
